As usually defined, the IC50 is the concentration at which inhibition is half-maximal. A low value points to greater potency.

For assay [1], the target named is HLA-DP4 molecule DP401 (DPA1*0103/DPB1*0401) (human) (UniProt P20036). The assay can be described thus: competition ELISA. A general note: In an ELISA, binding on a coated surface is turned into a signal by an enzyme label.
For assay [2], the target named is HLA-DP4 molecule DP402 (DPA1*0103/DPB1*0402) (human) (UniProt P20036). The assay can be described thus: competition ELISA.
For assay [3], the target named is HLA-DP4 molecule DP401 (DPA1*0103/DPB1*0401) (human) (UniProt P20036). As to the kind of experiment: competition ELISA, tracer bUNK1.
In assay [4] the target is HLA-DP4 molecule DP402 (DPA1*0103/DPB1*0402) (human) (UniProt P20036). As to the kind of experiment: competition ELISA, tracer bUNK1.
The target in assay [5] is HLA-DP4 molecule DP401 (DPA1*0103/DPB1*0401) (human) (UniProt P20036). The assay can be described thus: competition ELISA; capped, '>10 000' in Table VII.
Assay [6] deals with HLA-DP4 molecule DP402 (DPA1*0103/DPB1*0402) (human) (UniProt P20036). As to the kind of experiment: competition ELISA; capped, '>10 000' in Table VII.

Api m1 65-82 (peptide): the IC50 turned out to be 50 µM in assay [1], 6.5 µM in assay [2], 50 µM in assay [3] and 6.5 µM in assay [4]. Besides, the relative binding activity vs UNK1 (IC50 ratio) in assay [4] is 371 fold.
With Api m1 69-86 (peptide), the IC50 in assay [3] is > 10 µM; in assay [4], > 10 µM; in assay [5] it was 10 µM; in assay [6] it was > 10 µM.
As to Api m1 73-90 (peptide), the 50% inhibitory concentration (IC50) in assay [3] was > 10 µM; in assay [4], > 10 µM; in assay [5] it was 10 µM; in assay [6] it was > 10 µM.
As for Api m1 81-98 (peptide), the IC50 in assay [1] and in assay [3] was 2.25 µM in each case.

For the origin of these results see patent publication US20050059107A1.
